Like-named read-outs stand apart in the source and are kept apart here.

Assay [1] deals with Tva fused with HA tag and the human IgG-Fc fragment (pCAGGS-Tva-HA-Fc).
Assay [2] has the same target. Put plainly: co-IP with grey value analysis. As to conditions: parent: est. 1.0; read off a plot.
For assay [3] the target is unchanged. The source holds these as a separate data set.
The target is the same in assay [4]. This is another data set of the same source.

ALV-A gp85 G324P (domain or fragment) had a competitive blocking test: percent GFP-positive DF-1 cells after incubation with the concentrated soluble gp85 and infection with RCASBP(A)-EGFP in assay [1] of 5.5%.

Turning to ALV-A gp85 I326T (domain or fragment), in assay [1], the competitive blocking test: percent GFP-positive DF-1 cells after incubation with the concentrated soluble gp85 and infection with RCASBP(A)-EGFP was determined as 4.5%.

As for “ALV-A gp85 wt (soluble gp85 of ALV-A RSA, pCAGGS-s-gp85-flag) 328_329insP”, the ratio to parent in assay [2] is 0.71.

Turning to “ALV-A gp85 wt (soluble gp85 of ALV-A RSA, pCAGGS-s-gp85-flag) A270del”, the ratio to parent in assay [2] came out at 0.93.

For the substance “ALV-A gp85 wt (soluble gp85 of ALV-A RSA, pCAGGS-s-gp85-flag) N269del”, the ratio to parent in assay [2] was 0.91.

In assay [3], “recombinant ALV-A gp85 R274V (domain or fragment)” came in with a competitive blocking test: percent GFP-positive DF-1 cells after incubation with the concentrated soluble gp85 and infection with RCASBP(A)-EGFP of 9.5%.

The substance “soluble recombinant ALV-A gp85 328_329insP (domain or fragment)” came in with a competitive blocking test: percent GFP-positive DF-1 cells after incubation with the concentrated soluble gp85 and infection with RCASBP(A)-EGFP in assay [1] of 12.5%.

Take “soluble recombinant chimeric protein gp85 s8 (ALV-A gp85 with segment s8, residues 269-275, replaced by that of ALV-K) (domain or fragment)”: in assay [4], the competitive blocking test: percent GFP-positive DF-1 cells after incubation with the concentrated soluble gp85 and infection with RCASBP(A)-EGFP came out at 11%.

Values taken from publication PMC9400301.
